# *1 amine or outer side, *2 acyl side, *3 side chain or, on linkers, in order; H or OH if unused. Bridges are numbered along the chain shown (N, C = ends). Primed or numbered codes have the meaning given here. Where no end group is shown, it is not given here. [ ]: non-standard residue; d: D form. The star is where a group is joined. Ttds = 1,13-diamino-4,7,10-trioxatridecan-succinamic acid, NCCCOCCOCCOCCCNC(=O)CCC(=O)*; APAc″ = 4-amino-1-carboxymethylpiperidine, NC1CCN(CC(=O)*)CC1; DOTA = O=C(O)CN1CCN(CC(=O)O)CCN(CC(=O)*)CCN(CC(=O)O)CC1; Trp(5-Cl) = N[C@@H](Cc1c[nH]c2ccc(Cl)cc12)C(=O)O; Phe(3,4-Cl2) = N[C@@H](Cc1ccc(Cl)c(Cl)c1)C(=O)O; Pyridine(2,6-diCH2) = c1cc(C[*:1])nc(C[*:2])c1; Trp(6-F) = N[C@@H](Cc1c[nH]c2cc(F)ccc12)C(=O)O; 2Lut″ = 2,6-lutidylidene linking two thiols; Oic = O=C(O)[C@@H]1C[C@@H]2CCCC[C@@H]2N1; Phe(3-Cl) = N[C@@H](Cc1cccc(Cl)c1)C(=O)O; Pro(4S-NH2) = N[C@@H]1CN[C@H](C(=O)O)C1; Phe(2-Cl) = N[C@@H](Cc1ccccc1Cl)C(=O)O; mXylylene = c1cc(C[*:1])cc(C[*:2])c1; Hyp = O=C(O)[C@@H]1C[C@@H](O)CN1; Cysteamide = C(CS[*:3])N[*:1]; Thp = NC1(C(=O)O)CCOCC1; Dap = NC[C@H](N)C(=O)O; Aib = CC(C)(N)C(=O)O; Sar = CNCC(=O)O
# Tests used:
# [1] = molecular target: biotinylated extracellular domain of the human GIP receptor (bioGIPR) (human) (UniProt P48546); experiment: SPR single cycle kinetics, bioGIPR captured on chip; category B: pKD 8.1-9.0
# biotinylated extracellular domain of the human GIP receptor (bioGIPR) (human), sequence (P48546 24-138 limits assumed): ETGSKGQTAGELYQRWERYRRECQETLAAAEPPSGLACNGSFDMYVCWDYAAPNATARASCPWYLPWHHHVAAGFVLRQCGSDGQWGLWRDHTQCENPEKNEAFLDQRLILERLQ
# [2] = molecular target: biotinylated extracellular domain of the human GIP receptor (bioGIPR) (human) (UniProt P48546); experiment: SPR single cycle kinetics, bioGIPR captured on chip; category A: t1/2 >15 min
# [3] = molecular target: human Gastric Inhibitory Peptide Receptor (human) (UniProt P48546); experiment: FACS competition with GIP-057 on CHO-K1-hGIPR cells; pIC50 category A: >8.0
# human Gastric Inhibitory Peptide Receptor (human), sequence (P48546 22-466 limits assumed): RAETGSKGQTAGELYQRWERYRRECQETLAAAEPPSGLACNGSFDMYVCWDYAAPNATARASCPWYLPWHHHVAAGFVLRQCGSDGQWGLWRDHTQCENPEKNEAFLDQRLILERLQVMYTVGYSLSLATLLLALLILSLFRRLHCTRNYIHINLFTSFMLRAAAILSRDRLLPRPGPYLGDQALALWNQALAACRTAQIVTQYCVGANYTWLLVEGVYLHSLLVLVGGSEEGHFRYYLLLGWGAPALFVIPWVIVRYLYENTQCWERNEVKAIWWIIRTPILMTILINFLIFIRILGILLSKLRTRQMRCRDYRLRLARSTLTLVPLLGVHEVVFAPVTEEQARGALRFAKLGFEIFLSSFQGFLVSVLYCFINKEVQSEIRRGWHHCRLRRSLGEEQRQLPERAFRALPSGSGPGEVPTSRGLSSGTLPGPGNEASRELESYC
# [4] = molecular target: human Gastric Inhibitory Peptide Receptor (GIPR) (human) (UniProt P48546); experiment: FACS competition vs biotinylated GIP-057 on CHO-K1-hGIPR cells; category A: pIC50 >8.0
# human Gastric Inhibitory Peptide Receptor (GIPR) (human), sequence (P48546 22-466 limits assumed): as above
# [5] = molecular target: human Gastric Inhibitory Peptide Receptor (GIPR) (human) (UniProt P48546); experiment: FACS competition vs biotinylated GIP-057 on CHO-K1-hGIPR cells; category D: pIC50 <=6.0
# [6] = molecular target: human Gastric Inhibitory Peptide Receptor (GIPR) (human) (UniProt P48546); experiment: FACS competition vs biotinylated GIP-057 on CHO-K1-hGIPR cells; category C: pIC50 6.1-7.0
pKD [1],t1/2 [2],pIC50 [6],Binder,also measured
8.1 to 9 pkd,> 15 min,–,{DOTA-Ttds}-DW[Trp(5-Cl)][Pro(4S-NH2)](Ac)E[dL]C[Aib]LI[Cysteamide] (linker 7-11 via mXylylene) [DOTA-Ttds-Asp-Trp-5Clw-4Ap(Ac)-Glu-leu-[Cys(3MeBn)-Aib-Leu-Ile-AET]],pIC50 [3]: > 8 pic50
8.1 to 9 pkd,> 15 min,–,"Ac-DW[Trp(5-Cl)][Hyp]R[dL]C[Thp]LIC-NH2 (linker 7-11 via Pyridine(2,6-diCH2)) [Ac-Asp-Trp-5Clw-Hyp-Arg-leu-[Cys(2Lut)-Thp-Leu-Ile-Cys]-NH2]",pIC50 [4]: > 8 pic50
8.1 to 9 pkd,> 15 min,–,"Ac-DW[Trp(5-Cl)][Hyp]K[dL]C[Thp]LIC-NH2 (linker 7-11 via Pyridine(2,6-diCH2); SMILES CC[C@H](C)[C@@H]1NC(=O)[C@H](CC(C)C)NC(=O)C2(CCOCC2)NC(=O)[C@@H](NC(=O)[C@@H](CC(C)C)NC(=O)[C@H](CCCCN)NC(=O)[C@@H]2C[C@@H](O)CN2C(=O)[C@H](Cc2c[nH]c3ccc(Cl)cc23)NC(=O)[C@H](Cc2c[nH]c3ccccc23)NC(=O)[C@H](CC(=O)O)NC(C)=O)CSCc2cccc(n2)CSC[C@@H](C(N)=O)NC1=O) [Ac-Asp-Trp-5Clw-Hyp-Lys-leu-[Cys(2Lut)-Thp-Leu-Ile-Cys]-NH2]",pIC50 [4]: > 8 pic50
–,–,–,"Ac-D[Phe(3,4-Cl2)][Phe(3,4-Cl2)][Oic]E[dL]C[Thp]LIC-NH2 (linker 7-11 via Pyridine(2,6-diCH2); SMILES CC[C@H](C)[C@@H]1NC(=O)[C@H](CC(C)C)NC(=O)C2(CCOCC2)NC(=O)[C@@H](NC(=O)[C@@H](CC(C)C)NC(=O)[C@H](CCC(=O)O)NC(=O)[C@@H]2C[C@@H]3CCCC[C@@H]3N2C(=O)[C@H](Cc2ccc(Cl)c(Cl)c2)NC(=O)[C@H](Cc2ccc(Cl)c(Cl)c2)NC(=O)[C@H](CC(=O)O)NC(C)=O)CSCc2cccc(n2)CSC[C@@H](C(N)=O)NC1=O) [Ac-Asp-Eaa-Eaa-Oic-Glu-leu-[Cys(2Lut)-Thp-Leu-Ile-Cys]-NH2]",pIC50 [5]: < 6 pic50
–,–,–,"Ac-D[Phe(3,4-Cl2)][Phe(3,4-Cl2)][Sar]E[dL]C[Thp]LIC-NH2 (linker 7-11 via Pyridine(2,6-diCH2); SMILES CC[C@H](C)[C@@H]1NC(=O)[C@H](CC(C)C)NC(=O)C2(CCOCC2)NC(=O)[C@@H](NC(=O)[C@@H](CC(C)C)NC(=O)[C@H](CCC(=O)O)NC(=O)CN(C)C(=O)[C@H](Cc2ccc(Cl)c(Cl)c2)NC(=O)[C@H](Cc2ccc(Cl)c(Cl)c2)NC(=O)[C@H](CC(=O)O)NC(C)=O)CSCc2cccc(n2)CSC[C@@H](C(N)=O)NC1=O) [Ac-Asp-Eaa-Eaa-Nmg-Glu-leu-[Cys(2Lut)-Thp-Leu-Ile-Cys]-NH2]",pIC50 [5]: < 6 pic50
–,–,6.1 to 7 pic50,Ac-DW[Phe(3-Cl)][Hyp]E[dL]C[Thp]LIC-NH2 (linker 7-11 via 2Lut″) [Ac-Asp-Trp-Mcf-Hyp-Glu-leu-[Cys(2Lut)-Thp-Leu-Ile-Cys]-NH2],–
–,–,6.1 to 7 pic50,"Ac-D[Phe(3,4-Cl2)][Phe(3,4-Cl2)][Hyp]E[dL]C[Thp]LIC-NH2 (linker 7-11 via Pyridine(2,6-diCH2); SMILES CC[C@H](C)[C@@H]1NC(=O)[C@H](CC(C)C)NC(=O)C2(CCOCC2)NC(=O)[C@@H](NC(=O)[C@@H](CC(C)C)NC(=O)[C@H](CCC(=O)O)NC(=O)[C@@H]2C[C@@H](O)CN2C(=O)[C@H](Cc2ccc(Cl)c(Cl)c2)NC(=O)[C@H](Cc2ccc(Cl)c(Cl)c2)NC(=O)[C@H](CC(=O)O)NC(C)=O)CSCc2cccc(n2)CSC[C@@H](C(N)=O)NC1=O) [Ac-Asp-Eaa-Eaa-Hyp-Glu-leu-[Cys(2Lut)-Thp-Leu-Ile-Cys]-NH2]",–
8.1 to 9 pkd,> 15 min,–,"{DOTA-APAc″}-DW[Trp(5-Cl)][Hyp]E[dL][Dap][Thp]LI[Cysteamide] (linker (positions not given here) via Pyridine(2,6-diCH2); not fully specified (bridges); printed as DOTA-APAc-Asp-Trp-5Clw-Hyp-Glu-leu-[Dap(2Lut)-Thp-Leu-Ile-AET]) [DOTA-APAc-Asp-Trp-5Clw-Hyp-Glu-leu-[Dap(2Lut)-Thp-Leu-Ile-AET]]",pIC50 [3]: > 8 pic50
–,–,6.1 to 7 pic50,{DOTA-Ttds}-D[Trp(6-F)]WPE[dL]C[Aib]LI[Cysteamide] (linker 7-11 via mXylylene) [DOTA-Ttds-Asp-6Fw-Trp-Pro-Glu-leu-[Cys(3MeBn)-Aib-Leu-Ile-AET]],–
–,–,6.1 to 7 pic50,"Ac-D[Phe(2-Cl)][Trp(5-Cl)][Hyp]E[dL]C[Thp]LIC (linker 7-11 via Pyridine(2,6-diCH2); not fully specified (C-terminus)) [Ac-Asp-Ocf-5Clw-Hyp-Glu-leu-[Cys(2Lut)-Thp-Leu-Ile-Cys]-lys(DOTA)-NH2]",–

# Source: patent publication US20250296971A1, “GASTRIC INHIBITORY PEPTIDE RECEPTOR LIGANDS” (priority 2021, published 2025)
